Here are results for 4 molecules from patent publication US20100297101A1 (Scripps Research, published 2010).

Assay [1] has as its target human integrin αIIbβ3 (purified, Enzyme Research Laboratories) (human) (UniProt P08514). Briefly: competitive ELISA: inhibition of biotinylated human fibrinogen binding to immobilised human integrin αIIbβ3. In general terms: In an ELISA, binding on a coated surface is turned into a signal by an enzyme label.
Assay [2] has as its target native integrin αIIbβ3 expressed on the surface of human platelets (human) (UniProt P08514). Briefly: cell-based or functional assay.
Assay [3] deals with T1, human integrin αIIbβ3 (purified, Enzyme Research Laboratories) (human, UniProt P08514 32-1039; P05106 27-788).
T1 construct: Bought protein, coated on ELISA plates or used in solution; also called integrin αIIββ3; GPIIb/IIIa
The assay is described as follows: competitive ELISA: inhibition of biotinylated fibrinogen binding to immobilised integrin αIIbβ3.

Bridges are numbered along the chain shown (N, C = ends). Where no end group is shown, it is not given here.

Sequence of Fab abciximab (ReoPro) (VH): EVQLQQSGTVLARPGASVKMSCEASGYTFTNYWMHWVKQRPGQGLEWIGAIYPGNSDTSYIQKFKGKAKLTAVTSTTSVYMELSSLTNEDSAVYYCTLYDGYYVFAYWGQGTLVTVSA
Sequence of Fab abciximab (ReoPro) (VL): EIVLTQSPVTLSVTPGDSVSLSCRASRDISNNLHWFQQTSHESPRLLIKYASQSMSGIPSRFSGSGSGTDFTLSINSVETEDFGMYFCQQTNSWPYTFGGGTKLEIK

The IC50 is the point on the concentration scale where inhibition reaches its midpoint. The molecule Fab abciximab (ReoPro) gave an IC50 in assay [1] of 0.09 µM. Further, in assay [2], the EC50, required concentration for 50% inhibition in a human platelet aggregation assay was found to be 0.045 µM.

VWCRADRRC (disulfide 3-9 (inferred); not fully specified) [cyclic peptide VWCRADRRC] registered an IC50 in assay [3] of 1.2 µM.

The molecule VWCRADKRC (disulfide 3-9 (inferred)) [cyclic peptide VWCRADKRC] returned an IC50 in assay [3] of 4.2 µM.

As to VVCRADRRC (disulfide 3-9 (inferred), Synthetic nonapeptide (Peptron)) [cyclic peptide VVCRADRRC], the IC50 in assay [3] is 11 µM.
